B1: GpH7-Kn045/GpH7-Hl048/GpL16-k0 (antibody)
chain 1: QVQLVQSGAEVKKPGASVTVSCKASGYTFTDYEMHWIRQPPGEGLEWIGAIDPKTGDTAYSESFQDRVTLTADKSTSTAYMELSSLTSEDTAVYYCTRFYSYTYWGQGTLVTVSSASTKGPSVFPLAPSSKSTSGGTAALGCLVKDYFPEPVTVSWNSGALTSGVHTFPAVLQSSGLYSLSSVVTVPSSSLGTQTYICNVNHKPSNTKVDKKVEPKSCDKTHTCPPCPAPEYYAGPSVFLFPPKPKDTLMISRTPEVTCVVVDVSDEDPEVKFNWYVDGVEVHNAKTKPREEQYNATYRVVSVLTVLHQDWLNGKEYKCKVSNKALPAPIEKTISKAKGQPREPQVCTLPPSRDELTKNQVSLWCLVKGFYPSDIAVEWESNGQPENNYKTTPPVLDSDGSFFLYSKLTVDKSRWQQGNVFSCSVMHEALHNHYTQKSLSLSP
chain 2: QVQLVQSGAEVKKPGASVTVSCKASGYTFTDYEMHWIRQPPGEGLEWIGAIDPKTGDTAYSESFQDRVTLTADKSTSTAYMELSSLTSEDTAVYYCTRFYSYTYWGQGTLVTVSSASTKGPSVFPLAPSSKSTSGGTAALGCLVKDYFPEPVTVSWNSGALTSGVHTFPAVLQSSGLYSLSSVVTVPSSSLGTQTYICNVNHKPSNTKVDKKVEPKSCDKTHTCPPCPAPELLAGPDVFLFPPKPKDTLMISRTPEVTCVVVDVSHEDPEVKFNWYVDGVEVHNAKTKPREEQYNSTYRVVSVLTVLHQDWLNGKEYKCKVSNKALPKPEEKTISKAKGQPREPQVYTLPPSRCELTKNQVSLSCAVKGFYPSDIAVEWESNGQPENNYKTTPPVLDSDGSFFLVSKLTVDKSRWQQGNVFSCSVMHEALHNHYTQKSLSLSP
chain 3: DIVMTQSPLSLPVTPGEPASISCQASESLVHSNRNTYLHWYLQKPGQSPQLLIYKVSNRFSGVPDRFSGSGSGTDFTLKISRVEAEDVGVYYCSQNTHVPPTFGQGTKVEIERTVAAPSVFIFPPSDEQLKSGTASVVCLLNNFYPREAKVQWKVDNALQSGNSQESVTEQDSKDSTYSLSSTLTLSKADYEKHKVYACEVTHQGLSSPVTKSFNRGEC
B2: GpH7-Kn056/GpH7-Hl055/GpL16-k0 (antibody)
chain 1: B1 chain 1 with Q293L
chain 2: B1 chain 2 with Q293L, K328M
chain 3: B1 chain 3
B3: GpH7-Kn037/GpH7-Hl036/GpL16-k0 (antibody)
chain 1: B1 chain 2 with K328A, Y347C, C354D, S364W, A366L, V405Y
chain 2: B1 chain 2 with K328A
chain 3: B1 chain 3
B4: GpH7-Kn032/GpH7-Hl032/GpL16-k0 (antibody)
chain 1: B1 chain 2 with A234G, K328L, Y347C, C354D, S364W, A366L, V405Y
chain 2: B1 chain 2 with A234G, K328L
chain 3: B1 chain 3
B5: H240-Kn120/H240-Hl073/L73-k0 (antibody)
chain 1: QDQLVQSGAEVKKPGASVKVSCKASGFNIKDTYIQWVRQAPGQGLEWMGRIDPLRKQTKYREKFEGRVTITADTSTNTAYMELSSLRSEDTAVYYCVRSGREFDYWGQGTLVTVSSASTKGPSVFPLAPSSKSTSGGTAALGCLVKDYFPEPVTVSWNSGALTSGVHTFPAVLQSSGLYSLSSVVTVPSSSLGTQTYICNVNHKPSNTKVDKKVEPKSCDKTHTCPPCPAPEYYWGPMVFLFPPKPKDTLMISRTPEVTCVVVDVSDEDPEVKFNWYVDGVEVHNAKTKPREEQYNATYRVVSVLTVLHQDWLNGKEYKCKVSNKDLPAPIEKTISKAKGQPREPQVCTLPPSRDELTKNQVSLWCLVKGFYPSDIAVEWESNGQPENNYKTTPPVLDSDGSFFLYSKLTVDKSRWQQGNVFSCSVMHEALHNHYTQKSLSLSP
chain 2: QDQLVQSGAEVKKPGASVKVSCKASGFNIKDTYIQWVRQAPGQGLEWMGRIDPLRKQTKYREKFEGRVTITADTSTNTAYMELSSLRSEDTAVYYCVRSGREFDYWGQGTLVTVSSASTKGPSVFPLAPSSKSTSGGTAALGCLVKDYFPEPVTVSWNSGALTSGVHTFPAVLQSSGLYSLSSVVTVPSSSLGTQTYICNVNHKPSNTKVDKKVEPKSCDKTHTCPPCPAPELLSGPSVFLFPPKPKDTLMISRTPEVTCVVVDVSHEEPEVKFNWYVDGVEVHNAKTKPREEQYNSTYRVVSVLTVLHQDWLNGKEYKCKVSNDALPKPIEETISKAKGQPREPQVYTLPPSRCELTKNQVSLSCAVKGFYPSDIAVEWESNGQPENNYKTTPPVLDSDGSFFLVSKLTVDKSRWQQGNVFSCSVMHEALHNHYTQKSLSLSP
chain 3: DIQMTQSPSSLSASVGDRVTITCRASQDIHKYIAWYQQKPGQAPRLLIQYTSTLQPGVPSRFSGSGSGTDYTFTISSLQPEDIATYYCLQYEQLRTFGGGTKVEIKRTVAAPSVFIFPPSDEQLKSGTASVVCLLNNFYPREAKVQWKVDNALQSGNSQESVTEQDSKDSTYSLSSTLTLSKADYEKHKVYACEVTHQGLSSPVTKSFNRGEC
B6: H240-Kn179/H240-Hl068/L73-k0 (antibody)
chain 1: B5 chain 1 with E293K
chain 2: B5 chain 2 with S235G
chain 3: B5 chain 3
B7: H240-Kn120/H240-Hl085/L73-k0 (antibody)
chain 1: B5 chain 1
chain 2: B5 chain 2 with S235V
chain 3: B5 chain 3
B8: H240-Kn120/H240-Hl086/L73-k0 (antibody)
chain 1: B5 chain 1
chain 2: B5 chain 2 with S235I
chain 3: B5 chain 3
B9: H240-Kn180/H240-Hl068/L73-k0 (antibody)
chain 1: B5 chain 1 with E293R
chain 2: B5 chain 2 with S235G
chain 3: B5 chain 3
B10: H240-Kn120/H240-Hl089/L73-k0 (antibody)
chain 1: B5 chain 1
chain 2: B5 chain 2 with S235T
chain 3: B5 chain 3

Positions count from the first letter of the chain named. A value given as a limit tells only on which side of the number the result lay.

T6 sequence (P08637 17-208 F176V): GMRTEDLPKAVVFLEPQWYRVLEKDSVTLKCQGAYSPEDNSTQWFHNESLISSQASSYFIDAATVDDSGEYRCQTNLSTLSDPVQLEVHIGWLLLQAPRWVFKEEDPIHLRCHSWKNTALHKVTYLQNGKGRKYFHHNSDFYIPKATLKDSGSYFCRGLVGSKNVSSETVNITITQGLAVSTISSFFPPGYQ

In one test the target is T1, FcgRIIIa F (human, UniProt P08637). As to the kind of experiment: SPR.
T1 sequence (P08637 17-208): as the sequence (P08637 17-208 F176V) above, with V160F counted along it
For B1, binding was characterised by a dissociation constant (Kd) of 3.7 nM.
B2 returned a Kd of 1.4 nM.
B3 yielded a Kd of 9.7 nM.
The same measure, in the same setting: the figure for B4 is 4.1 nM.

The target of a further test is T1, FcgRIIIa F. The test can be described thus: SPR. This is another data set of the same source.
B5: binding was put at a Kd of 8.2 nM.
Consider B6, for which the Kd worked out at 4.8 nM.
Same read-out and setting: the figure for B7 is 23 nM; for B8 it is 33 nM.
The molecule B9 returned an equilibrium dissociation constant (Kd) of 3.1 nM.
The molecule B10 displayed a Kd of 12 nM.

Another test has as its target T2, FcgRIa (human, UniProt P12314).
T2 chain: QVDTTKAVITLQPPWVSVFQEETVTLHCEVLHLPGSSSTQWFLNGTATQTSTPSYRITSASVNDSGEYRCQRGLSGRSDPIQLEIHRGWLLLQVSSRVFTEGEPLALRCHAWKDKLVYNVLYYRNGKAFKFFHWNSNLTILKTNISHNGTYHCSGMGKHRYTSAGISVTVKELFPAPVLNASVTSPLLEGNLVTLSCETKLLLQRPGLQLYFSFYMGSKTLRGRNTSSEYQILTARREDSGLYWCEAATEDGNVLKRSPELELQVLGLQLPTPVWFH
The test can be described thus: SPR.
In turn, B1 showed a Kd of 0.019 nM.
Turning to B2, binding was characterised by a dissociation constant (Kd) of 0.023 nM.
Same read-out and setting: the figure for B3 is 0.012 nM; for B4 it is 0.0028 nM.

The target of the next test is T3, FcgRIIa R (human, UniProt P12318).
T3 chain: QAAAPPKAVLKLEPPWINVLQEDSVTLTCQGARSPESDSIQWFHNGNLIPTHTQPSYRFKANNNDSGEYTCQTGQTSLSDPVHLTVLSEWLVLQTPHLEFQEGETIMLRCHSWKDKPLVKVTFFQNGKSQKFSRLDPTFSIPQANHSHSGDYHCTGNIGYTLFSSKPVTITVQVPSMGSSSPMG
The test can be described thus: SPR.
In turn, B1 had a Kd of 4.8 nM. This lies in the single-digit nanomolar range.
On the same count and under the same terms, the figure for B2 is 17 nM.
Molecule B3 displayed a Kd of 17 nM. This lies in the double-digit nanomolar range.
As for B4, the Kd came out at 250 nM.

The target in another test is T4, FcgRIIb (human, UniProt P31994).
T4 chain: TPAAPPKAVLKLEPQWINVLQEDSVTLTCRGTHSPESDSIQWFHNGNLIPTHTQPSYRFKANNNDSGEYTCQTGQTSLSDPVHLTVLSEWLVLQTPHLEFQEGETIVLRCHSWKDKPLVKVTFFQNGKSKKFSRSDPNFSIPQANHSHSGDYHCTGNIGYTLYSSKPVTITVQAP
The test can be described thus: SPR.
B1 displayed a Kd of 110 nM.
On to B2, for which the dissociation constant Kd was 260 nM. Compared with the last molecule, the Kd is about 2.4-fold higher.
Consider B3, for which binding was characterised by a dissociation constant (Kd) of 230 nM.
For B4, binding was characterised by a dissociation constant (Kd) of 440 nM.

A further test addresses T5, FcgRIIa H (human, UniProt P12318).
T5 chain: T3 chain with R134H
The test can be described thus: SPR.
With B5, binding was put at a Kd of 21 nM.
Turning to B6, the Kd was 41 nM.
For B7, the Kd worked out at 46 nM.
The molecule B8 displayed a Kd of 53 nM.
Molecule B9 displayed a Kd of 33 nM.
B10 returned a Kd of 41 nM.

The next test has as its target T6, FcgRIIIa V (human, UniProt P08637). The test can be described thus: SPR.
B5 registered a Kd of 1.8 nM.
The molecule B6 displayed a Kd of 0.98 nM.
As to B7, binding was put at a Kd of 6.2 nM. This Kd lies about 6.3-fold higher than the previous one.
B8 registered a Kd of 14 nM. This Kd is about 2.3-fold higher than that of the molecule before.
In turn, B9 displayed a dissociation constant (Kd) of 0.67 nM.
With B10, the Kd was found to be 5.4 nM.

The next test has as its target T3, FcgRIIa R. The test can be described thus: SPR. The source holds these as a separate data set.
B5: the Kd worked out at 15 nM.
B6 had a Kd of 26 nM. This Kd lies about 1.7-fold higher than the previous one.
Molecule B7 came in with a Kd of 19 nM.
As to B8, the Kd came out at 22 nM.
With B9, binding was put at a Kd of 21 nM.
Regarding B10, binding was put at a Kd of 14 nM.

The next test concerns the target T5, FcgRIIa H. The test can be described thus: SPR. This is another data set of the same source.
Molecule B1 yielded a Kd of 11 nM.
The molecule B2 gave a Kd of 30 nM. Against the preceding molecule, the Kd is about 2.7-fold higher.
Turning to B3, the Kd is 27 nM. This Kd and that of the molecule before are within 1.5-fold of each other.
B4 registered a Kd of 470 nM.

In the next test the target is T4, FcgRIIb. The test can be described thus: SPR. The source holds these as a separate data set.
As for B5, the affinity, expressed as Kd, was 210 nM.
The same measure, in the same setting: next, B6: 260 nM.
As for B7, the Kd worked out at 390 nM.
With B8, the Kd came to 480 nM. This Kd and that of the molecule before are within 1.5-fold of each other.
The molecule B9 yielded a Kd of 240 nM.
With B10, the Kd came out at 190 nM.

The next test has as its target T2, FcgRIa. The test can be described thus: SPR. This is another data set of the same source.
In turn, B5 gave a Kd below 0.028 nM.
Molecule B6 yielded a Kd of 0.3 nM.
Same read-out and setting: next, B7: 87 nM; B8: 1.4 nM.
B9: the Kd stood at 0.3 nM.
As to B10, the Kd amounted to 0.18 nM. This Kd is about 1.7-fold lower than that of the molecule before.

A further test deals with T6, FcgRIIIa V. The test can be described thus: SPR. The source holds these as a separate data set.
On to B1, for which binding was put at a Kd of 1.3 nM.
The molecule B2 returned a Kd of 0.66 nM. Compared with the last molecule, the Kd is about 2-fold lower.
In turn, B3 came in with a Kd of 2.6 nM.
On the same count and under the same terms, the figure for B4 is 1.2 nM.

The values above are taken from patent publication US10766960 (dated 2020).
